Experiment: soluble on expression in E. coli; label from the status in PepcDB or PDB records

Row | Sequence | soluble on expression in E. coli
1 | MGSDKIHHHHHHMMAYLVFLGPPGAGKGTYAKRLQEITGIPHISTGDIFRDIVKKENDELGKKIKEIMERGELVPDELVNEVVKRRLSEKDCERGFILDGYPRTVAQAEFLDGFLKTQNKELTAAVLFEVPEEVVVQRLTARRICPKCGRIYNLISLPPKEDELCDDCKVKLVQREDDKEETVRHRYKVYLEKTQPVIDYYDKKGILKRVDGTIGIDNVIAEVLKIIGWSDK | not soluble
2 | SRSKQKSRRRCFQCQTKLELVQQELGSCRCGYVFCMLHRLPEQHDCTFDHMGRG | soluble
3 | MSNIIARFHKIQVQDGVKVWYREAGAAGNPTILLLHGFPTSSNMFRNLIPLLAGQFHIIAPDLPGFGFTETPENYKFSFDSLCESIGYLLDTLSIEKFAMYIFDYGSPVGFRLALKFPSRITGIVTQNGNAYEEGLDDRFWGPLKEYWKSYQSDPVFVKSLIPYLEDPANVICQYHDGVPAIESVDPAAYTLDIALIQRTGQTDIQLRLFFDYQNNIKLYPAFQKFLRDSKIPVLVAWGANDTIFSVAGAEAYRKDVDNLKVVYYDTGHFALETHVVAIAEEIISMFAEN | soluble
4 | MGSDKIHHHHHHMMTAHAIGTREEWLAARLDLLEAEKNLTRRSDELAKWRRELPWVRIDKAYRFETDEGEASLRDLFKGRSQLLVYHFMFGPDYTAGCPSCSAIADGFNGIVAHLENHDVAFSAVSRAPLAKLTAYKRRLGWSFPWASSDDGAFNRDFCVWFTEQQQREGGIEYNFRREPPIPEQPASEPLAGRTVREWDASGSEGPVAQIAAMTGTDVATYTRDRPGVSAFALEDGIVYHTYSSYARGLDGLWGMYQWLDRTPKGRNENGIWWRRHDEYAQG | not soluble
5 | MGSDKIHHHHHHMRKLKIGITCYPSVGGSGIIATELGKQLAEKGHEIHFITSSIPFRLNTYHPNIHFHEVEVNQYAVFKYPPYDLTLASKIAEVAERENLDIIHAHYALPHAVCAYLAKQMLKRNIGIVTTLHGTDITVLGYDPSLKDLIRFAIESSDRVTAVSSALAAETYDLIKPEKKIETIYNFIDERVYLKKNTAAIKEKHGILPDEKVVIHVSNFRKVKRVQDVIRVFRNIAGKTKAKLLLVGDGPEKSTACELIRKYGLEDQVLMLGNQDRVEDLYSISDLKLLLSEKESFGLVLLEAMACGVPCIGTNIGGIPEVIKNNVSGFLVDVGDVTAATARAMSILEDEQLSNRFTKAAIEMLENEFSSKKIVSQYEQIYADLAEPE | not soluble
6 | MGSDKIHHHHHHMQAEAQHPKAEQYRTARLSRDARFDGLFFVGVFSTGIFCRPICPAVPAKEANVRYFDDALSAAQAGLRPCLRCRPDSAPGSNPWLGKQTSLNRAMSLIDAGVLCGPQAIPMTGLAERLGISERYLRQLFHDSLGTSPKQYALYQQLMFAKQLLHQTKMPITQVAYAAGFNSVRRFNEIFRQQLQLTPSEIRKATGQPSLPVQGLTLKLAYRPPYDWQHLRSFFAQRAVPEMEWLDEQSYGRSFVLGAAKGYFCAVHSEQEACFHVTIHLAEADSLSQLKGIISHIRRILDLDADMLTIGDKLQALGKALPQVSPGLRLPGVWSPFEAACRAILGQQVSVTQAIKLLGQLVADHGETISLNEKTVRLFPTPAALVDASLDGLKMPGIRKEAIRALAAFVMANPESEIDDWLQIKGIGPWTLDYVRLRGLSLPDVLLVGDLVVKQQLLVNLRPEPSSCDGEPAEDEDPKAAKKRAQAQYQALSQAVLRQVAPWGSYLTLQLWNRQ | not soluble
7 | ITDHNTLSGVSKMVEACKINKRFLNNKCPQILAGIEISCSDKHHVVVILNNKDMDMMQKAEDWLTNYIISDDGTYLPSLLVIEAFVEIGAIAYIAHFNTSDLFKKPKFLSGLYIDKLFSTKKMEIIGLSNMDSKLAIEEKLSNYTKRKFHFILDEDSHTLEELCTKPFWIK | not soluble
8 | MNNNDVLRKLRYTFNFNDKQMVAIFASAGEEVSREQVSQWLKKDTDSDFVALFDTKLAVFLNGFINEKRG | not soluble
9 | MEVKEVELELSSEATFLSKTSIGEITAGEKGLNPMELLLVSIGSCSGVDVYHILKKKRQEVKDIKIFLKGKRREKHPKIYEEIEIKYVAVGKVEEKALEQAVKLSTEKYCSVLAMVKPSTNLKISWEVKWEE | soluble
10 | TDAPANQGFIIGVTGCPAGVAHTYLAAEALEKGAAAMGYEIKVETNGSIGVKNSPTAEEIERADAIIVACDKQVDMNRFAGKRVVKTNVKAPIRDAQGLINEALNAPTY | not soluble
11 | MAHHHHHHMKWKWYNTKNICTLTNVFLSKHPYKPKTREIIHPHMTPPEYLAPSDCFQAKTGELQQYIPNNYYRVKWIESLRSGEYLGEDYPWNLLPNWKYWRKRKYNVKYEEIPWFISKVKGVSYYKRLNVWMVQWVENGVHRIRRFRCAFGLLQAKLAAEQFRKKLEEAGRVDNRKTERQIRMDYIQKKDERLLRKKKYSKISKGQF | not soluble
12 | MSQEQLVAVNELNENLGKVLIKIARDSIANKLGILKINLEDYLSSLNDPILNKKGLAFVTLETYYGNSTSLRGCIGYVEAVAPLKEIVSKAAIAAAFSDPRFPPLSKGEFDNIIIEVTVLTKPQEIDVENRWELPKKIKVGEDGLIVEYGILYSGLLLPQVPMEYCWDEETFLAETCIKAGLEPDCWLNNKVKIKKFQGIIFREEKPKSEKILIIKPSEVKCKKEEISLL | soluble
13 | MLKSASSLVRSFIRPQTFRLCSSSSTTQGSPSVSSDDEPVILENNPYTKEPRKSFLCSTGVELDYKNSRLLQQFVSTFSGRVYDRHITGLCDENKKKLIEAIAKSRRAGFMPIFVKDPKYTRDPKLFDPLKPIRPHSFA | not soluble
14 | LDNAPLLELDVQEWVNHEGLSNEDLRGKVVVVEVFQMLCPGCVNHGVPQAQKIHRMIDESQVQVIGLHSVFEHHDVMTPEALKVFIDEFGIKFPVAVDMPREGQRIPSTMKKYRLEGTPSIILADRKGRIRQVQFGQVDDFVLGLLLGSLLSETD | not soluble
15 | HHHHHHAIAENLYFQSGRYRIRVATGAWLFSGSYNRVQLWLVGTRGEAELELQLRPARGEEEEFDHDVAEDLGLLQFVRLRKHHWLVDDAWFCDRITVQGPGACAEVAFPCYRWVQGEDILSLPEGTARLPGDNALDMFQKHREKELKDRQQIYCWATWKEGLPLTIAADRKDDLPPNMRFHEEKRLDFEWTLKAGALEMALKRVYTLLSSWNCLEDFDQIFWGQKSALAEKVRQCWQDDELFSYQFLNGANPMLLRRSTSLPSRLVLPSGMEELQAQLEKELQNGSLFEADFILLDGIPANVIRGEKQYLAAPLVMLKMEPNGKLQPMVIQIQPPSPSSPTPTLFLPSDPPLAWLLAKSWVRNSDFQLHEIQYHLLNTHLVAEVIAVATMRCLPGLHPIFKFLIPHIRYTMEINTRARTQLISDGGIFDKAVSTGGGGHVQLLRRAAAQLTYCSLCPPDDLADRGLLGLPGALYAHDALRLWEIIARYVEGIVHLFYQRDDIVKGDPELQAWCREITEVGLCQAQDRGFPVSFQSQSQLCHFLTMCVFTCTAQHAAINQGQLDWYAWVPNAPCTMRMPPPTTKEDVTMATVMGSLPDVRQACLQMAISWHLSRRQPDMVPLGHHKEKYFSGPKPKAVLNQFRTDLEKLEKEITARNEQLDWPYEYLKPSCIENSVTI | soluble
16 | MGSSHHHHHHSSGRENLYFQGHMIPEHLSIYTAYNANIAAIVKLNQETIQNLINAFDPDEVKRRIEEYPREINEPIDFVARLVHTLKLGKPAAVPLVNEKMNEWFDKTFRYEEERLGGQAGIIANTLAGLKIRKVIAYTPFLPKRLAELFKKGVLYPVVENGELQFKPIQEAYREGDPLKINRIFEFRKGLKFKLGDETIEIPNSGRFIVSARFESISRIETREDIKPFLGEIGKEVDGAIFSGYQGLRTKYSDGKDANYYLRRAKEDIIEFKEKDVKIHVEFASVQDRKLRKKIITNILPFVDSVGIDEAEIAQILSVLGYRELADRIFTYNRLEDSILGGMIILDELNFEILQVHTTYYLMYITHRDNPLSEEELAKSLEFGTTLAAARASLGDIRGPDDYKVGLKVPFNERSEYVKLRFEEAKSRLRMREYKVVVIPTRLVQNPVLTVGLGDTISAGAFLTYLEFLKRHGS | soluble
17 | MPVDQSRQYLRIRDQLAADIAQGVLQVKLPSERELAERFLCTRITLREALQQLETEGLVYRENRRGWFVAPPRIRYNPTRTTGFMEYVSAQGRQPRTETLHAERRAAGAWLAKRMGLEDSAPVYFLQRRRWVDERPVLIELIALDAGWCPGLLDHDLDTSLMSLLRERFGLQPTRCQLAMHPTALNAAQAEPLQLAPGSPALYLERLSYAEGQRVVEFDQEFWRPDALEIVLDAAYPGA | not soluble
18 | SLENVMRSLGFGFACKKGLKPDSPNQDDFAALCCSAFRLFGVFDGHGPSGHDVSGYVHRMLFALLLTDESLNRNPQLALRNAFVAPSKLRKSALLQVVCLPLFRPQPFTNVGGYDEAKAVRFVLFFSGGELKRLECDIPYRVFLKGRLYPGLAMSRALGDAIASHAGVSCEPDLSTVELDRSCLFVIIASDGVWEFISNQEAVNIVNEAMGSERKVRAKAAAERLALEAFKRWVEEEGNVVDDVFPVSPGGSHALPLLTTDPFIAKMKFLTNILLVLSCVLVLAGTVQGQKME | not soluble
19 | GMFTCKVNEHITIRLLEPKDAERLAELIIQNQQRLGKWLFFAENPSSADTYRETIIPDWRRQYADLNGIEAGLLYDGSLCGMISLHNLDQVNRKAEIGYWIAKEFEGKGIITAACRKLITYAFEELELNRVAICAAVGNEKSRAVPERIGFLEEGKARDGLYVNGMHHDLVYYSLLKREWEGEK | soluble
20 | MSRGVKRVTAITNREREAVLRIEFPNVDVTDIDFDLFQARESTDKPLDVAAAIAYRLLLGSGLPQKFGCSDEVLLNFILQCRKKYRNVPYHNFYHVVDVCQTIYTFLYRGNVYEKLTELECFVLLITALVHDLDHMGLNNSFYLKTESPLGILSSASGNKSVLEVHHCNLAVEILSDPESDVFGGLEGAERTLAFRSMIDCVLATDMARHSEFLEKYLEIMKTSYNVDDSDHRQMTMDVLMKAGDISNVTKPFDVSRQWAMAVTEEFYRQGDMEKERGVEVLPMFDRSKNMELAKGQIGFIDFVAAPFFQKIVDACLQGMQWTVDRTKSNRAQWERVLEARSTGAS | soluble
21 | MSLRASVAATKQKRFVAVDIETTGLNTESDQILSIGAVKHDGIEFYRLIKQDIDVPKQIVELTGITSEMLSKEGVPLQDALEELTDFVGNVPIVGYNFRFDSVFLNRDYRKCGMQELKNEIKDLLPVVKRREKFLDNYKLQTVLSNYGIENKVPHNAVSDARATKELAMKLIKNRILVIEGHHHHHH | soluble
22 | GSHMVEMRMKKCPKCGLYTLKEICPKCGEKTVIPKPPKFSLEDRWGKYRRMLKRALKNKNKAE | soluble
23 | PFMDQSGGGVTFCGGEPLLHPEFLIDILKRCGQQGIHRAVDTTLLARKETVDEVMRNCELLLIDLKSMDSTVHQTFCDVPNELILKNIRRVAEADFPYYIRIPLIEGVNADEKNIKLSAEFLASLPRHPEIINLLPYHDIGKGKHAKLGSIYNPKGYKMQTPSEEVQQQCIQILTDYGLKATIGG | soluble
24 | MIQDIKRSSAPAAPAPVTVLKMWPNEMRSQSLEENLDAKLEQFKKEHSPVKERGNCSKTRKISENQPPPSFEVVMAKIRGIQESLKNMEDQMNEEERGKEMPDSTENSFDFSKIWQYFDQTRIEEIRALLKKRQFPDSP | not soluble
25 | MPLVSMKEMLNKALEGKYAVGQFNMNNLEWTQAILAAAEEEKSPVILGVSEGAARHMTGFKTVVAMVKALIEEMNITVPVAIHLDHGSSFEKCKEAIDAGFTSVMIDASHHPFEENVETTKKVVEYAHARNVSVEAELGTVGGQEDDVIAEGVIYADPAECKHLVEATGIDCLAPALGSVHGPYKGEPNLGFAEMEQVRDFTGVPLVLHGGTGIPTADIEKAISLGTSKINVNTENQIEFTKAVREVLNKDQEVYDPRKFIGPGRDAIKATVIGKIREFGSNGKA | not soluble
